Reference: paper PMC10767040, “Helical reconstruction of VP39 reveals principles for baculovirus nucleocapsid assembly” (Nature Communications, 2024)

Target: the molecule itself
Experiment: cryo-EM structure; helical reconstruction (D14, rise 43.86 Å, twist -7.16°) of AcMNPV nucleocapsids purified from Sf9 cells, on graphene-coated grids; local reconstruction of four adjacent VP39 dimers

B1: Autographa californica multiple nucleopolyhedrovirus (AcMNPV) major capsid protein VP39 (natural protein)
chain: MALVPVGMAPRQMRVNRCIFASIVSFDACITYKSPCSPDAYHDDGWFICNNHLIKRFKMSKMVLPIFDEDDNQFKMTIARHLVGNKERGIKRILIPSATNYQDVFNLNSMMQAEQLIFHLIYNNENAVNTICDNLKYTEGFTSNTQRVIHSVYATTKSILDTTNPNTFCSRVSRDELRFFDVTNARALRGGAGDQLFNNYSGFLQNLIRRAVAPEYLQIDTEELRFRNCATCIIDETGLVASVPDGPELYNPIRSSDIMRSQPNRLQIRNVLKFEGDTRELDRTLSGYEEYPTYVPLFLGYQIINSENNFLRNDFIPRANPNATLGGGAVAGPAPGVAGEAGGGIAV
notes: VP39, the 39 kDa major capsid protein of Autographa californica multiple nucleopolyhedrovirus, as assembled in the nucleocapsid; the first 11 residues of the N terminus and the last 27 residues of the C terminus are unresolved in the model; The virus's own VP39 from the bacmid backbone; the decahistidine or FLAG tags were on unrelated human constructs, not on VP39; In the sample VP39 stood as …
Question: For B1, which “stoichiometry N” value is on record?
Answer: Its value is 2.
